Data from paper doi:10.1101/2024.12.05.626995 (bioRxiv, 2024).

T1: GST-tagged mature full-length GET3b (Arabidopsis thaliana, UniProt A1L4Y1 68-411)
T1 sequence: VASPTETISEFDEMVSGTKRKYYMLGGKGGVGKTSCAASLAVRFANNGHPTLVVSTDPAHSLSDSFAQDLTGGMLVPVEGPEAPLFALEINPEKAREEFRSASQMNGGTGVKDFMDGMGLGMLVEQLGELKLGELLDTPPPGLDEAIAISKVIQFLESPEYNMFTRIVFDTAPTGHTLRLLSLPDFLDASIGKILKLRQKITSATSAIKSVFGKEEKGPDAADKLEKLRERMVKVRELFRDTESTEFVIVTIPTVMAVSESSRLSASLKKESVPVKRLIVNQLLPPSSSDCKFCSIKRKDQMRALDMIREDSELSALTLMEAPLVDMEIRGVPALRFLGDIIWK

B1: His-tagged C-terminal region of ALB3 (aa 350-462) (domain or fragment)
chain: VYLRKLGGAKPNMDENASKIISAGRAKRSIAQPDDAGERFRQLKEQEKRSKKNKAVAKDTVELVEESQSESEEGSDDEEEEAREGALASSTTSKPLPEVGQRRSKRSKRKRTV
B2: His-tagged C-terminal region of ALB4 (aa 334-499) (domain or fragment)
chain: VWLQKYGGAKNPVEKFTNLVTKEDKTQQIEKSFSEPLVQKSVSELKIPREKGGEKVTPECPKPGERFRLLKEQEAKRRREKEERQKAEAALSNQNTDKAHEQDEKSDTAIVAEDDKKTELSAVDETSDGTVAVNGKPSIQKDETTNGTFGIGHDTEQQHSHETEKR

Target: T1, GST-tagged mature full-length GET3b
Assay: pull-down

Row | Binder | binding result
1 | B1 | binds
2 | B2 | binds
